The values below come from publication PMC4018528.

Broadly, the Kd is a measure of binding affinity in units of concentration. One may read the koff as a measure of how fast the partners let go of each other. One may read the kon as the second-order rate constant of association.

This experiment concerns the target recombinant His-tagged Sp4E-BP (Strongylocentrotus purpuratus 4E-BP) (Strongylocentrotus purpuratus). The experiment in a line: SPR; Sp4E-BP immobilised (60 uRIU) by amine coupling on a mixed SAM chip; Flag-MmIF4E1:m7GTP injected from 4.37 uM to 53.9 nM (3-fold dilution series); 25°C; HEPES 50 mM pH 7.7, KCl 150 mM, 0.5% Igepal; flow 25 uL/min; global fit, one step 1:1 reaction (Scrubber 2.0a). In general terms: Surface plasmon resonance follows binding to a sensor surface in real time, without labels.

As for “Flag-tagged MmIF4E1 (eIF4E1 from Mus musculus), as Flag-MmIF4E1:m7GTP (from UniProt P63073 1-217) (natural protein)”, the Kd is 23 nM, the koff came out at 0.00022 s⁻¹ and the kon was 9300 M⁻¹ s⁻¹.
